The text below walks through data of US20190359723A1.

Experiment [1] deals with T1, IL-13RA2 endogenously expressed on U251 cells (human) (UniProt Q14627).
T1 sequence (looked up): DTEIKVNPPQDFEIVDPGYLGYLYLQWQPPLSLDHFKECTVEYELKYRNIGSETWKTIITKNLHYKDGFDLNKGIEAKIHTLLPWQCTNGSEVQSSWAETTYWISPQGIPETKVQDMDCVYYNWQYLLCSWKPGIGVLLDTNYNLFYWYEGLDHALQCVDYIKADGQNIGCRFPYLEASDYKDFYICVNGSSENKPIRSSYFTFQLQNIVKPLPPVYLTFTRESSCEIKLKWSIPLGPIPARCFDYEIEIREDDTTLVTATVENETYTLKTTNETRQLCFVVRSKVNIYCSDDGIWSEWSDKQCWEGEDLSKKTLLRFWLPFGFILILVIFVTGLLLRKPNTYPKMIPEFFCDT
Kind of experiment: flow cytometry on U251 cells, scFv_Fc form, 5-fold dilutions from 2,000 nM, FITC anti-human IgG. On the technique in general: A flow cytometer gives signals particle by particle.

The target in experiment [2] is IL-13RA2 huFc (human). Kind of experiment: SPR (Biacore T200), ligand IL13Ra2 on the chip, scFv_Fc as analyte at 6.25 to 100 nM, 1:1 binding fit, flow 30 ul/min. In general terms: SPR reads the build-up and loss of mass on a sensor chip optically.
The target in experiment [3] is IL-13RA2 huFc (human). Kind of experiment: SPR (Biacore T200), scFv_Fc forms on IL-13RA2 huFc, summary table.

B1: 2D3 (scFv_Fc form) (Fc fusion, not shown: a dimerising Fc or GST)
scFv: EVQLLESGGGLVQPGGSLRLSCAASGFTFRRPAMTWVRQAPGKGLEWVSAITGSGGSTYYADSVKGRFTISRDNSKNTLYLQMNSLRAEDTAVYYCVKVRYGWGAGAFDYWGQGTLVTVSSGGGGSGGGGSGGGGSDIQMTQSPSTLSASVGDRVTITCRASQSISSWLAWYQQKPGKAPKLLIYDASSLESGVPSRFSGSGSGTEFTLTISSLQPDDFATYYCQQYDTYPPITFGQGTKVEIK
Take B1: the EC50 – broadly, the concentration that produces a half-maximal response – in experiment [1] turned out to be 0.33 nM. For the same molecule, in the experiment with IL-13RA2 huFc (human) [2], the Kd (usually a measure of binding affinity in units of concentration) stood at 0.348 nM; the koff – broadly, a measure of how fast the partners let go of each other – is 0.000196 s⁻¹; the on-rate (kon) (commonly a measure of how fast the partners come together) turned out to be 563000 M⁻¹ s⁻¹. In the experiment with IL-13RA2 huFc (human) [3], this molecule had a Kd of 0.348 nM, a dissociation rate constant (koff) of 0.000196 s⁻¹ and a kon of 563000 M⁻¹ s⁻¹.
